Measured values: paper doi:10.1101/2025.02.19.639050 (bioRxiv, 2025)
Substitutions are numbered along the chain they refer to.

B1: ERBB2-P00873 (antibody, V domains shown)
VH: VQLVESDGGGLVQQGGSLRLSCAASGFNIKDRYIHWVRQAPGKGLEWVARIYPTNGYTRYADRVKGRFTISADTSKNTAYLQMFSLRAEDTAVYYCSRWGGDGFYAMDYWGQGTLVTVSS
VL: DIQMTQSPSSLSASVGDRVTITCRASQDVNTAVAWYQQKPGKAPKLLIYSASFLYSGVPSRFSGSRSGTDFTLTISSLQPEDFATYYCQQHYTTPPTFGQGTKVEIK
notes: as the heavy chain of m2 (trastuzumab, PDB 1N8Z) with changes; as the light chain of m2 (trastuzumab, PDB 1N8Z); Expressed as IgG; also called design of hu4D5 (5 edits, 1 insertion); source: Expi293F, transient (GLFs), purified (Protein A)
B2: seed OSM-N021 (antibody, V domains shown)
VH: EVQLVESGGGLVQPGGSLRLSCAASGFTFNIYSMNWVRQAPGKGLEWISYISGNSNTIYYADSVKGRFTISRDNAKNSVYLQMNSLRDEDTAVYYCARSLLRYFDWLSAFDIWGQGTMVTVSS
VL: EIVLTQSPGTLSLSPGERATLSCRASQSVGSSYLAWYQQRPGQAPRLLIHGASSRATGIPDRFSGSGSGTDFTLTISGLEPEDVAVYYCQQYGSSPLTFGGGTKVEIK
notes: IgG in SPR; the Fab was crystallised; source: Expi293F, transient (GLFs), purified (Protein A)
B3: design 9N7O (antibody, V domains shown)
VH: B2 VH with N30T, G53S, N54G, V79L, L100S, A109Y, I112Y
VL: B2 VL
notes: the Fab of this design is deposited as PDB 9N7O (heavy chain); the Fab of this design is deposited as PDB 9N7O (light chain); IgG in SPR; the Fab (CHO) was crystallised; also called design of seed OSM-N021 with S+Y mutations in the stem region of CDRH3; source: Expi293F, transient (GLFs), purified (Protein A)
B4: design 9N7M (antibody, V domains shown)
VH: B2 VH with G53S, N54G, K76E, V79L, L100G, A109Y, M118L
VL: B2 VL
notes: the Fab of this design is deposited as PDB 9N7M (heavy chain); the Fab of this design is deposited as PDB 9N7M (light chain); IgG in SPR; the Fab (CHO) was crystallised; also called design of seed OSM-N021 with G+Y mutations in the stem region of CDRH3; source: Expi293F, transient (GLFs), purified (Protein A)

Tests used:
[1] = biological target: T1, Human epidermal growth factor receptor 2 (Homo sapiens, UniProt P04626); experiment: SPR; Biacore 8K+; antibody captured on a Protein A chip, antigen injected (typically 0.16, 0.8, 4, 20 and 100 nM; 180 s association, 600 s dissociation, 30 µl/min); HBS-EP buffer pH 7.4, 0.15 M NaCl; single cycle or multi cycle kinetics; 1:1 binding model; details: both partners purified
T1 construct: ERBB2), the antigen injected in SPR; also called HER2; ERBB2

Oncostatin M = biological target: T2, Oncostatin M (Homo sapiens, UniProt P13725); experiment: as above; details: both partners purified
T2 construct: Oncostatin M (OSM), the antigen injected in SPR; also called OSM
T2 sequence (P13725 26-221): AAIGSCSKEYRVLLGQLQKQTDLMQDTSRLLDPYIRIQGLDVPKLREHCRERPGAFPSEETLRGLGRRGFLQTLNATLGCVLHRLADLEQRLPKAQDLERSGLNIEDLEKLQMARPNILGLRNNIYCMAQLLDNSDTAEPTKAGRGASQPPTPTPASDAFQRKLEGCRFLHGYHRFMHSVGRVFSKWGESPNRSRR

Row | Binder | fold improvement in binding relative to trastuzumab (hu4D5) [1] | ΔpKD relative to trastuzumab (hu4D5) [1] | binding result (Oncostatin M) | fold improvement in affinity relative to the seed OSM-N021 (Oncostatin M) | ΔpKD relative to the seed OSM-N021 (Oncostatin M)
1 | B1 | > 4 fold | 0.688 |  |  | 
2 | B2 |  |  | binds |  | 
3 | B3 |  |  |  | ~4.5 fold | 0.65
4 | B4 |  |  |  | 3.6 fold | 0.56
